According to patent US20250277208A1, “Method of Peptide Library Construction and Peptides Thereof” (Alcamena Stem Cell Therapeutics, LLC, priority 2024, published 2025):
Like-named read-outs stand apart in the source and are kept apart here.

How the values were obtained:
IL-6 signaling = IL-6 signaling (Homo sapiens, UniProt P05231); test: IL-6 Bioassay (Promega), luciferase reporter cells, inhibition of IL-6-induced cell signaling; format: cell-based; settings: peptides incubated with IL-6 for 10 min, IL-6 0.5 nM, cells 6 hours
Sequence of IL-6 signaling (P05231 30-212): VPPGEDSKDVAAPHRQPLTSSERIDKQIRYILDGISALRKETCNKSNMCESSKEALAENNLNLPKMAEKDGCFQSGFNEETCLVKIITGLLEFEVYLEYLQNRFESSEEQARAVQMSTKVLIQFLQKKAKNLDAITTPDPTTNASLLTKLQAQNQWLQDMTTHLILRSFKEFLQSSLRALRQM
Description: To verify the ability of the peptides of the invention to inhibit IL-6-signaling, they were tested with the IL-6 Bioassay Kit (Promega). This kit includes human cells engineered to express the IL-6 receptor and a luciferase reporter driven by a response element. When IL-6 binds, the IL-6R transduces intracellular signals resulting in luminescence (fluorescence). Inhibition of IL-6 interaction with the receptor leads to the decrease of the luciferase expression and lower fluorescence.
The selected peptides were incubated with IL-6 for 10 min before being added to cell culture medium. […] Peptides 27 (2), 38 (2) and 45 (2) were also tested.
The ability of peptides to inhibit IL-6 signaling pathway was tested with the IL-6 Bioassay from Promega (cat #JA2501). The bioluminescent signal is detected and quantified using Bio-Glo™ Luciferase Assay System. Different concentrations of the test peptides were mixed with IL-6 (0.5 nM) and added to the IL-6 Bioassay Cells according to the manufacturer's instructions. Cells were incubated for 6 hours in a humidified incubator at 37° C. and 5% CO2 concentration. Following incubation, 75 microliters of the Bio-Glo™ Reagent was added to the cell culture and the luminescence was measured with a Biotek Synergy HTX plate reader. Data was analyzed according to manufacturer's recommendations.

IL-6 = target: T1, IL-6 (Homo sapiens, UniProt P05231); test: Biacore surface plasmon resonance binding of peptides to immobilised IL-6; settings: Table 2, mutation combinations; N terminus acetylated, C terminus amidated; nd = not detected; read-out: KD (nM) P < 0.05
T1 construct: purchased R&D Systems BT7270B
Text: Two DNA fragments were amplified from a synthetic fragment of the IL-6R. The 5′ fragment was amplified with forward primer and a mixture of 432 reverse primers, each containing an overhang of 6 codons. The 3′ fragment was amplified with a mixture of 432 forward primers, also containing overhangs of six degenerate codons and the reverse primer. Either the first or the second nucleotide of each codon was replaced with a degenerate base. Following PCR amplification, DNA fragments were phosphorylated and ligated leading to various sequence rearrangements shown at the bottom of the FIG. 3. Four hundred thirty-two forward and reverse oligos with an overhang of 6 codons from the IL-6R binding domain were used for PCR. A degenerate nucleotide was inserted at the first or second position of each codon. When ligated, these sequences generated a library of 1×10^13 different DNA sequences. The library of DNA sequences was taken through eight rounds of mRNA Display generating a peptide library. Eighteen of the most abundant peptides in the peptide library were synthesized in a linear form and tested for binding to IL-6 using Biacore. One of the peptides (#9) (“Peptide 9”) from the peptide library, with the sequence of […] The twelve non-terminal residues represent the PepFusion library-derived DNA sequences, while N-terminal serine and C-terminal glycine come from the flanking linkers and were kept as a precaution, in case linker sequences contributed to peptide interaction with its target.
Binding reactions were performed in HBS-P/2% DMSO buffer (10 mM Hepes, pH 7.4, 150 mM NaCl, 0.05% P-20, 2% DMSO), which was filtered through […] filters and degassed before use. Biotinylated recombinant human IL-6 (IL-6-Biotin) was bound to the surface of a Biacore SA sensor chip of a Biacore T200 surface plasmon resonance unit as follows. The streptavidin surface of the chip (flow cells 1 and 2) was activated by injecting 20 μl of 1 M NaCl/50 mM NaOH at 20 μl/min, in 3 pulses. Biotinylated Recombinant Human IL6 was diluted with HBS-P buffer and an aliquot of 100 μl (2 micrograms/ml) was injected into flow cell 2 at 5 microliters/min to yield a signal of 1400 response units (RU) (10 microliters were injected). Any remaining activated residues on the streptavidin surface of flow cells 1 and 2 were blocked with 30 microliters 500 nM free Biotin.
(§1) Affinity scouting assay was performed at a flow rate of 30 microliters/min at 25° C. The analyte (60 microliter aliquots of peptides, at concentrations of 20 μM in HBS-P/2% DMSO buffer) was injected into flow cells 1 and 2 and the association reaction was recorded. The surface was then washed with HBS-P/2% DMSO for 3 min and the dissociation of the analyte from the bound IL6 was followed over time. The surfaces of the flow cells were regenerated with 30 microliters of 10 mM NaOH, followed 50 microliters of HBS-P/2% DMSO buffer.
as §1, with “Kinetics analysis of binding was performed” for “Affinity scouting assay was performed”, “concentrations of 0, 1.25 μM, 2.5 μM, 5 μM, 10 μM and 20 μM” for “concentrations of 20 μM”, “DMSO buffer. Sensorgrams were analyzed using BIAeveluation 3.2.1 software (Cytiva). Values from the reference flow cell were subtracted to obtain the values for specific binding. Data were globally fitted to the Langmuir model for a 1:1 mass transfer binding.” for “DMSO buffer.”

[1] = target: T2, Biotinylated recombinant human IL-6 (human, UniProt P05231 30-212, biotinylated (sites not given)); test: SPR (Biacore), IL-6 on chip
T2 construct: In the cell bioassay IL-6 (0.5 nM) was used in solution; also called Interleukin-6; IL-6-Biotin

[2] = target: T2, Biotinylated recombinant human IL-6; test: SPR (Biacore), IL-6 on chip; remark: listed apart in the source
[3] = target: T2, Biotinylated recombinant human IL-6; test: cell-based or functional assay

An IC50 (IL-6 signaling) of 85 nM was found for “Ac-SVRDLLRRMCHIVG-NH2 [9(2), SVRDLLRRMCHIVG]” in this work.

An IC50 (IL-6 signaling) of 580 nM and a Kd (IL-6) of 580 ± 156 nM were found for “Ac-SVRDLLRRMKVCVG-NH2 [27(2), SVRDLLRRMKVCVG]” in this work.

An IC50 (IL-6 signaling) of 16800 nM was found for “Ac-TIRDLIRMMKVCVG-NH2 [Peptide 100, TIRDLIRMMKVCVG]” in this work.

B1: Peptide 100 (peptide)
peptide: Ac-TIRDLIRMMKVCVG-NH2
B1 was tested, and the Kd [1] was 50 nM, the Kd [2] was 59 nM and the “IC50, inhibition of IL-6-induced cell signaling (IL-6 Bioassay, luciferase reporter cells)” value (“IC50, inhibition” for short) [3] was 16800 nM.

B2: Peptide 90 (peptide)
peptide: Ac-SFRDLIRMMKVCVG-NH2
For B2, the Kd [1] was 30 nM, the Kd [2] was 42 nM and the “IC50, inhibition” value [3] was 1200 nM.

B3: Peptide 9 (2) (peptide)
peptide: Ac-SVRDLLRRMCHIVG-NH2
notes: peptide 9 with protected termini
In the case of B3, the Kd [1] is reported as 300 nM, the Kd [2] is reported as 354 nM and the “IC50, inhibition” value [3] is reported as 85.4 nM.
